# Experimental data from patent publication US20240132615A1 (ICHNOS SCIENCES, published 2024).
# T1: human BCMA on multiple myeloma cells (human, UniProt Q02223 1-184)
# T1 construct: whole, on cells; Here the protein is the cell lines' own; also called B-cell maturation antigen; TNFRSF17
# T1 sequence (looked up): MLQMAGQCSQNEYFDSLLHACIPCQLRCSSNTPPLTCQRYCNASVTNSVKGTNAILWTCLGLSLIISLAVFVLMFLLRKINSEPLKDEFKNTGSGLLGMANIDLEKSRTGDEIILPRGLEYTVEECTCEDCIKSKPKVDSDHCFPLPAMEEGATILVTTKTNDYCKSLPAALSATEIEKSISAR
# B1: teclistamab (bispecific antibody)
# chain 1: not shown
# chain 2: SYVLTQPPSVSVAPGQTARITCGGNNIGSKSVHWYQQPPGQAPVVVVYDDSDRPSGIPERFSGSNSGNTATLTISRVEAGDEAVYYCQVWDSSSDHVVFGGGTKLTVLGQPKAAPSVTLFPPSSEELQANKATLVCLISDFYPGAVTVAWKGDSSPVKAGVETTTPSKQSNNKYAASSYLSLTPEQWKSHRSYSCQVTHEGSTVEKTVAPTECS
# chain 3: EVQLVESGGGLVQPGGSLRLSCAASGFTFNTYAMNWVRQAPGKGLEWVARIRSKYNNYATYYAASVKGRFTISRDDSKNSLYLQMNSLKTEDTAVYYCARHGNFGNSYVSWFAYWGQGTLVTVSSASTKGPSVFPLAPCSRSTSESTAALGCLVKDYFPEPVTVSWNSGALTSGVHTFPAVLQSSGLYSLSSVVTVPSSSLGTKTYTCNVDHKPSNTKVDKRVESKYGPPCPPCPAPEAAGGPSVFLFPPKPKDTLMISRTPEVTCVVVDVSQEDPEVQFNWYVDGVEVHNAKTKPREEQFNSTYRVVSVLTVLHQDWLNGKEYKCKVSNKGLPSSIEKTISKAKGQPREPQVYTLPPSQEEMTKNQVSLTCLVKGFYPSDIAVEWESNGQPENNYKTTPPVLDSDGSFLLYSKLTVDKSRWQEGNVFSCSVMHEALHNHYTQKSLSLSLGK
# chain 4: QTVVTQEPSLTVSPGGTVTLTCRSSTGAVTTSNYANWVQQKPGQAPRGLIGGTNKRAPGTPARFSGSLLGGKAALTLSGVQPEDEAEYYCALWYSNLWVFGGGTKLTVLGQPKAAPSVTLFPPSSEELQANKATLVCLISDFYPGAVTVAWKADSSPVKAGVETTTPSKQSNNKYAASSYLSLTPEQWKSHRSYSCQVTHEGSTVEKTVAPTECS
# B2: alnuctamab (bispecific antibody)
# chain 1: EVQLLESGGGLVQPGGSLRLSCAASGFTFSDNAMGWVRQAPGKGLEWVSAISGPGSSTYYADSVKGRFTISRDNSKNTLYLQMNSLRAEDTAVYYCAKVLGWFDYWGQGTLVTVSSASTKGPSVFPLAPSSKSTSGGTAALGCLVEDYFPEPVTVSWNSGALTSGVHTFPAVLQSSGLYSLSSVVTVPSSSLGTQTYICNVNHKPSNTKVDEKVEPKSCDKTHTCPPCPAPEAAGGPSVFLFPPKPKDTLMISRTPEVTCVVVDVSHEDPEVKFNWYVDGVEVHNAKTKPREEQYNSTYRVVSVLTVLHQDWLNGKEYKCKVSNKALGAPIEKTISKAKGQPREPQVCTLPPSRDELTKNQVSLSCAVKGFYPSDIAVEWESNGQPENNYKTTPPVLDSDGSFFLVSKLTVDKSRWQQGNVFSCSVMHEALHNHYTQKSLSLSPGK
# chain 2: EIVLTQSPGTLSLSPGERATLSCRASQSVSDEYLSWYQQKPGQAPRLLIHSASTRATGIPDRFSGSGSGTDFTLAISRLEPEDFAVYYCQQYGYPPDFTFGQGTKVEIKRTVAAPSVFIFPPSDRKLKSGTASVVCLLNNFYPREAKVQWKVDNALQSGNSQESVTEQDSKDSTYSLSSTLTLSKADYEKHKVYACEVTHQGLSSPVTKSFNRGEC
# chain 3: not shown
# chain 4: EVQLLESGGGLVQPGGSLRLSCAASGFTFSTYAMNWVRQAPGKGLEWVSRIRSKYNNYATYYADSVKGRFTISRDDSKNTLYLQMNSLRAEDTAVYYCVRHGNFGNSYVSWFAYWGQGTLVTVSSASVAAPSVFIFPPSDEQLKSGTASVVCLLNNFYPREAKVQWKVDNALQSGNSQESVTEQDSKDSTYSLSSTLTLSKADYEKHKVYACEVTHQGLSSPVTKSFNRGEC
# B3: TNB-F2B BEAT Fc (bispecific antibody, human IgG1, kappa, L234A L235A)
# chain 1: EVQLVESGGGLVQPGRSLRLSCAASGFTFDDYAMHWVRQAPGKGLEWVSGISWNSGSIGYADSVKGRFTISRDNAKNSLYLQMNSLRAEDTALYYCAKDSRGYGDYRLGGAYWGQGTLVTVSSASTKGPSVFPLAPSSKSTSGGTAALGCLVKDYFPEPVTVSWNSGALTSGVHTFPAVLQSSGLYSLSSVVTVPSSSLGTQTYICNVNHKPSNTKVDKKVEPKSCDKTHTCPPCPAPEAAGGPSVFLFPPKPKDTLMISRTPEVTCVVVDVSHEDPEVKFNWYVDGVEVHNAKTKPREEQYNSTYRVVSVLTVLHQDWLNGKEYKCKVSNKALPAPIEKTISKAKGQPREPAVYTLPPSREEMTKNQVKLVCLVTGFYPSDIAVEWESSGQPENNYYTTPPMLDSDGSFSLVSWLNVDKSRWQQGNIFSCSVMHEALHNRFTQKSLSLSPG
# chain 2: EVQLLESGGGLVQPGGSLRLSCAASGFTVSSYGMSWVRQAPGKGPEWVSGIRGSDGSTYYADSVKSRFTISRDNSKNTLYLQMNSLRAEDTAVYYCAKQGENDGPFDHRGQGTLVTVSSGGGGSEVQLLESGGGLVQPGGSLRLSCAASGFTVSSYGMSWVRQAPGKGPEWVSGIRGSDGSTYYADSVKSRFTISRDNSKNTLYLQMNSLRAEDTAVYYCAKQGENDGPFDHRGQGTLVTVSSGGGGTDKTHTCPPCPAPEAAGGPSVFLFPPKPKDTLMISRTPEVTCVVVDVSHEDPEVKFNWYVDGVEVHNAKTKPREEQYNSTYRVVSVLTVLHQDWLNGKEYKCKVSNKALPAPIEKTISKAKGQPREPEVATFPPSRDELTKNQVTLVCLVTGFYPSDIAVEWESNGQPENNYKTDPPLLESQGSFALSSRLRVDKSRWQQGNVFSCSVMHEALHNHYTQKSLSLSPG
# light: not shown
# notes: CD3 Fab (TNB-F2B) x BCMA dAb-dAb (TNB-BCMA) on a silenced (LALA) BEAT Fc; also called CD3xBCMA benchmark
# B4: 83A10-TCBcv (bispecific antibody, human IgG1, kappa, L234A L235A)
# chain 1: not shown
# chain 2: not shown
# chain 3: not shown
# chain 4: B2 chain 4
# notes: Comparator CD3xBCMA bispecific antibody; also called CD3 x BCMA benchmark
# B5: Anti-CD38-UCP03-B3 FAB (Fab, V domains shown)
# VH: QVQLVQSGAEVKKPGSSVKVSCKASGGDFTLYSISWVRQAPGQGLEWMGRIIPTGANANYAQKFQGRVTITADESTSTAYMELSSLRSEDTAVYYCARSWPSLGSGWFDIWGQGTLVTVSS
# VL: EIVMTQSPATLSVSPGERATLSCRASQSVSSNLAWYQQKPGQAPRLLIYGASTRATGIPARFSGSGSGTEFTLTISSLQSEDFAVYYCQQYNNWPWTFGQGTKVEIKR
# notes: Fab; also called anti-CD38-B3; anti-CD38-B3 Fab
# How the values were obtained:
# [1] = biological target: T2, human CD3 on primary human T cells (human, UniProt P07766 23-207; P04234 22-171; P09693 23-182; P20963 22-164); experiment: flow cytometry on isolated human primary T cells gated CD38-negative; one-site binding fit
# T2 construct: whole, on cells; Endogenous CD3 complex on isolated human T cells, gated CD38-negative; also called CD3-expressing T cells; human CD38 negative T cells
# Experimental: Cells were thawed in pre-warmed complete RPMI medium (RPMI supplemented with 10% heat inactivated fetal calf serum, 1% L-Glutamine, 1% Non-essential Amino Acids, 1% Sodium Pyruvate, and 1% Penicillin/Streptomycin) and rested overnight at 1.5×10⁶ cells/ml. Cells were plated at 1×10⁵ cells/well in 96-well round-bottom plates. The plates were centrifuged at 350 g for 3 min at 4° C. and cells washed twice with DPBS. Cells were resuspended in 25 μl of LIVE/DEAD Fixable Near-IR Dead Cell Stain (ThermoFisher Scientific, L34976) diluted at 1/1′000 in DPBS and incubated 20 min at 4° C. […] Cells were then washed twice and resuspended in 25 μl of FACS buffer with azide. Samples were acquired on an iQue Screener Plus instrument (IntelliCyt). Cells were gated based on size on FSC vs SSC and debris, doublets and dead cells were excluded. Finally, viable cells were gated on CD38-T cells. The population was analyzed for PE-geometric mean (geomean) fluorescence intensity (MFI) using iQue Forecyt© software. Only samples showing at least 2′000 cells in final gate were considered in the further steps of the analysis. Relative geometric mean fluorescence intensity (RFI) was calculated per donor by subtracting the mean of MFI of the negative control from the MFI of the sample at each dilution. RFI values were finally plotted using Prism software (GraphPad). Equilibrium dissociation constant values (KD) and maximum binding were determined by using one-site binding curve fitting on non-transformed data (Prism). […] Two independent experiments were performed.
# [2] = biological target: T1, human BCMA on multiple myeloma cells; experiment: flow cytometry on NCI-H929 CD38 KO cells (BCMA++CD38-), anti-human IgG secondary, RFI
# Experimental: (§1) The plates were centrifuged at 350 g for 3 min at 4° C. and cells washed twice with DPBS.
# (§2) Cells were resuspended in 25 μl of LIVE/DEAD Fixable Near-IR Dead Cell Stain (ThermoFisher Scientific, L34976) diluted at 1/1′000 in DPBS and incubated 20 min at 4° C. […] Cells were then washed twice and resuspended in 25 μl of FACS buffer with azide. Samples were acquired on an iQue Screener Plus instrument (IntelliCyt). Cells were gated based on size on FSC vs SSC and debris, doublets and dead cells were excluded. Population was analyzed for APC-geometric mean (geomean) fluorescence intensity (MFI) using iQue Forecyt® software. Only samples showing at least 2′000 cells in final gate were considered in the further steps of the analysis. Relative geometric mean fluorescence intensity (RFI) was calculated by subtracting the MFI of the negative control from the MFI of the sample at each dilution. RFI values were finally plotted using Prism software (GraphPad). Equilibrium dissociation constant values (KD) and maximum binding were determined by using one-site binding curve fitting on non-transformed data (Prism).
# [3] = biological target: T1, human BCMA on multiple myeloma cells; experiment: flow cytometry on NCI-H929 cells (BCMA++CD38++), anti-human IgG secondary, RFI
# Experimental: as §1, §2
# [4] = biological target: T1, human BCMA on multiple myeloma cells; experiment: flow cytometry on KMS-12-BM cells; one-site binding fit
# Experimental: as §1, §2
# [5] = biological target: T1, human BCMA on multiple myeloma cells; experiment: flow cytometry on KMS-12-BM cells (BCMA+CD38+), anti-human IgG secondary, RFI
# Experimental: as §1, §2
# [6] = biological target: T1, human BCMA on multiple myeloma cells; experiment: flow cytometry on NCI-H929 CD38 KO cells; one-site binding fit
# Experimental: as §1, §2
# [7] = biological target: T2, human CD3 on primary human T cells; experiment: flow cytometry on isolated human T cells (CD38-negative gate), anti-human IgG secondary, relative fluorescence (RFI)
# [8] = biological target: T1, human BCMA on multiple myeloma cells; experiment: flow cytometry on NCI-H929 WT cells; one-site binding fit
# Experimental: as §1, §2
# [9] = biological target: T1, human BCMA on multiple myeloma cells; experiment: flow cytometry on MOLP-8 cells; one-site binding fit
# [10] = biological target: T3, human CD3 on primary human CD38-negative T cells (human, UniProt P07766 23-207; P04234 22-171; P09693 23-182); experiment: flow cytometry on primary human CD38-negative T cells, one-site binding fit
# T3 construct: whole, on cells; Native CD3 within the TCR/CD3 complex on isolated human T cells, gated CD38-negative
# Experimental: Human PBMC were harvested from buffy coats/apheresis filters obtained from La Chaux-de-Fonds/Bern (Switzerland) Transfusion Center using Ficoll® density gradient isolation. […] Cells were thawed in pre-warmed complete RPMI medium (RPMI supplemented with 10% heat inactivated fetal calf serum, 1% L-Glutamine, 1% Non-essential Amino Acids, 1% Sodium Pyruvate, and 1% Penicillin/Streptomycin) and rested overnight at 2 ×10⁶ cells/ml. Cells were plated at 1×10⁵ cells/well in a 96-well round-bottom plate. […] Cells were incubated for 30 min at 4° C. Cells were then washed twice and resuspended in 50 μl of FACS buffer containing SYTOX Blue dead cell stain (ThermoFisher Scientific, S34857) diluted 1/2000. Samples were acquired on an iQue Screener Plus instrument (IntelliCyt). Cells were gated based on size on FSC vs SSC and debris and doublets were excluded. Finally, viable cells were gated on CD38-T cells. This population was analyzed for AlexaFluor647-geometric mean (geomean) fluorescence intensity using iQue Forecyt® software. Only samples showing at least 200 cells in final gate were considered in the further steps of the analysis. Relative geomean fluorescence intensity (RFI) was calculated by subtracting fluorescence of negative control (CD3/BCMA/CD38_085) to fluorescence of treatments at each dilution. Relative geomean fluorescence intensity values were finally plotted using Prism software (GraphPad). Equilibrium dissociation constant values (KD) and maximum binding were determined by using one-site binding curve fitting on non-transformed data (Prism).
# [11] = biological target: T3, human CD3 on primary human …; experiment: flow cytometry on CD38-negative primary human T cells, RFI after subtraction of the negative control, six donors
# Experimental: Cells were thawed in pre-warmed complete RPMI medium (RPMI supplemented with 10% heat inactivated fetal calf serum, 1% L-Glutamine, 1% Non-essential Amino Acids, 1% Sodium Pyruvate, and 1% Penicillin/Streptomycin) and rested overnight at 2 ×10⁶ cells/ml. Cells were plated at 1×10⁵ cells/well in a 96-well round-bottom plate. […] Cells were incubated for 30 min at 4° C. Cells were then washed twice and resuspended in 50 μl of FACS buffer containing SYTOX Blue dead cell stain (ThermoFisher Scientific, S34857) diluted 1/2000. Samples were acquired on an iQue Screener Plus instrument (IntelliCyt). Cells were gated based on size on FSC vs SSC and debris and doublets were excluded. Finally, viable cells were gated on CD38-T cells. This population was analyzed for AlexaFluor647-geometric mean (geomean) fluorescence intensity using iQue Forecyt® software. Only samples showing at least 200 cells in final gate were considered in the further steps of the analysis. Relative geomean fluorescence intensity (RFI) was calculated by subtracting fluorescence of negative control (CD3/BCMA/CD38_085) to fluorescence of treatments at each dilution. Relative geomean fluorescence intensity values were finally plotted using Prism software (GraphPad). Equilibrium dissociation constant values (KD) and maximum binding were determined by using one-site binding curve fitting on non-transformed data (Prism).
# [12] = biological target: T4, human CD38 on multiple myeloma cells (human, UniProt P28907 1-300); experiment: flow cytometry on NCI-H929 BCMA KO cells (BCMA-CD38++), anti-human IgG secondary, RFI
# T4 construct: whole, on cells; Here the protein is the cell lines' own
# Experimental: as §1, §2
# [13] = biological target: T5, recombinant cynomolgus monkey CD38-ECD-C-his protein (cynomolgus monkey, UniProt Q5VAN0 45-301); experiment: SPR, Fab as analyte, captured cynomolgus CD38-his
# T5 construct: made in house; Q5VAN0 residues 43-301 (residue 44 deleted) with C-terminal 6-His; also called cynomolgus monkey CD38-C-His; recombinant cynomolgus monkey CD38 protein
# Experimental: (§3) Surface plasmon resonance (SPR) was used to measure the binding affinities of the Fab fragments for human and cynomolgus monkey CD38. Affinities were measured on a Biacore T200 instrument (Cytiva Life Sciences) at 25° C. and analyzed with the Biacore T200 Evaluation Software (v3.1).
# (§4) The affinities to human and cynomolgus monkey CD38 were assessed by immobilizing CD38 and using Fab fragments as analyte. […] Fab fragments were injected in single cycle kinetic at different concentrations ranging from 7.8 to 2000 nM, in HBS-EP+ buffer (Cytiva Life Sciences, catalog NO: BR100669) at a flow rate of 30 μl/min for 3 min on flow-path 1 and 2 (flow-path 1 being used as reference). Dissociation was monitored for 5 min. […] Experimental data were processed using the 1:1 Langmuir kinetic fitting model.
# [14] = biological target: T6, recombinant human CD38 antigen for crystallography (hsCD38 ECD) (human, UniProt P28907 45-300); experiment: X-ray crystal structure of the complex, 3.4 Å
# T6 construct: also called ectodomain of hsCD38
# Experimental: The Fab/hsCD38 complex was concentrated to ˜11 mg/mL. […] Drops consisting of 1 μL protein+1 μL precipitant were set up at 20° C., and crystals appeared within 3-7 days. The resulting crystals were cryoprotected by soaking in well solution supplemented with 35% ethylene glycol, then flash cooled and stored in liquid nitrogen until data collection. Diffraction data were collected at the Swiss Light Source (SLS). […] The structure was determined by molecular replacement with Phaser.
# [15] = biological target: T7, Biotinylated Human CD38 Protein, Avitag, His Tag (Acrobiosystems CD8-H82E7) (human, UniProt P28907 43-300, biotinylated); experiment: SPR, Fab as analyte, immobilised biotinylated human CD38;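 further: biacore T200 at 25 °C, single-cycle kinetics with Fab from 7.8 to 2000 nM, 3 min association then 5 min dissociation, fitted with a 1:1 Langmuir model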
# T7 construct: bought protein; also called biotinylated recombinant human CD38 protein; human CD38-avi-his
# Experimental: as §3, §4
# T2 sequence (P07766 23-207, chain 1 of 4): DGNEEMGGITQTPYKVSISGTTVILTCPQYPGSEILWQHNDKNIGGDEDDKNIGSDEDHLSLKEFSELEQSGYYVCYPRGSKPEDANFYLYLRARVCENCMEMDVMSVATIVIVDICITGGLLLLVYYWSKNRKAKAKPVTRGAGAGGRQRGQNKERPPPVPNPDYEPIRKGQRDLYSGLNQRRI
# T2 sequence (P04234 22-171, chain 2 of 4): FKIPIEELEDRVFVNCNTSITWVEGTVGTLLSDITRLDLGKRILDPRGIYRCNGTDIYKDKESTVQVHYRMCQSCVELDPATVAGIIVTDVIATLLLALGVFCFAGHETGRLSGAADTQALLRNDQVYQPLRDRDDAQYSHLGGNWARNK
# T2 sequence (P09693 23-182, chain 3 of 4): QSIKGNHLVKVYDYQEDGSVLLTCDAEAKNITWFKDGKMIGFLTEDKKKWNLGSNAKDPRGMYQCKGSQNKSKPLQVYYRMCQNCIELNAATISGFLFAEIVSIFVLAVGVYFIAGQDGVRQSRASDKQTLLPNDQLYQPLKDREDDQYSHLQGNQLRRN
# T2 sequence (P20963 22-164, chain 4 of 4): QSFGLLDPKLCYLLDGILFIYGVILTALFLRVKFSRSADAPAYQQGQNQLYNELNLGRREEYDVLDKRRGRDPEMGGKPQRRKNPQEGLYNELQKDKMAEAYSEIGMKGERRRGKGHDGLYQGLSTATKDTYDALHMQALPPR
# T3 sequence (P07766 23-207, chain 1 of 3): as the sequence (P07766 23-207, chain 1 of 4) above
# T3 sequence (P04234 22-171, chain 2 of 3): as the sequence (P04234 22-171, chain 2 of 4) above
# T3 sequence (P09693 23-182, chain 3 of 3): as the sequence (P09693 23-182, chain 3 of 4) above
Binder,Kd [1],EC50 (read off the curve) [2],EC50 (read off the curve) [3],Kd [4],EC50 (read off the curve) [5],Kd [6],Kd [8],further results
B1,0.018 µM,~0.04 µM,~0.03 µM,0.0218 µM,~0.02 µM,0.0463 µM,0.0304 µM,EC50 (read off the curve) [7]: ~0.02 µM; Kd [9]: 0.0958 µM
B2,0.252 µM,~0.007 µM,~0.006 µM,0.0039 µM,~0.003 µM,0.0081 µM,0.006 µM,–
B3,–,–,–,–,–,–,–,Max binding (RFI) [10]: 60 RFI; binding result [11]: no binding (tested: 800 nM)
B4,0.155 µM,–,–,–,–,–,–,binding result [12]: no binding (tested: 800 nM)
B5,–,–,–,–,–,–,–,Kd [13]: 0.17 µM; binding result [14]: binds; Kd [15]: 0.115 µM
